Reference: patent US20150110806A1

Target: CD147 expressed on human endothelial cells (hCMEC/D3, hBMEC) and human brain sections (human) (UniProt P35613)
Assay: cell-based or functional assay

Row | Substance | bacterial adhesion to hCMEC/D3 cells (wild-type Nm, cells pretreated with 10 µg/ml MBP-pilin) [% reduction] | initial attachment of Nm to hBMEC cells under flow conditions (10 µg/ml antibody)
1 | MBP-PilE (from UniProt P0AEX9 27-392) | 60 | –
2 | MBP-PilV | 50 | –
3 | anti-CD147 antibody MEM-M6/1 | – | 20 % reduction
4 | anti-CD147 antibody MEM-M6/6 | – | 75 % inhibition
